Values of other authors, collected in patent US20190076452A1, “THERAPEUTIC COMBINATIONS FOR TREATING NEOPLASIA” (MEDIMMUNE LIMITED, priority 2014, published 2019).

Test system: advanced melanoma
Details: compared to the standard of care (temozolomide or dacarbazine); cited from earlier work

B1: tremelimumab: human IgG2 monoclonal antibody highly selective for CTLA-4 (antibody)
VH: GVVQPGRSLRLSCAASGFTFSSYGMHWVRQAPGKGLEWVAVIWYDGSNKYYADSVKGRFTISRDNSKNTLYLQMNSLRAEDTAVYYCARDPRGATLYYYYYGMDVWGQGTTVTVSSASTKGPSVFPLAPCSRSTSESTAALGCLVKDYFPEPVTVSWNSGALTSGVH
VL: PSSLSASVGDRVTITCRASQSINSYLDWYQQKPGKAPKLLIYAASSLQSGVPSRFSGSGSGTDFTLTISSLQPEDFATYYCQQYYSTPFTFGPGTKVEIKRTVAAPSVFIFPPSDEQLKSGTASVVCLLNNFYPREAKV
  overall survival of patients: did not significantly increase
